The results in this text go back to patent US11198713B2, “Agents modulating beta-catenin functions and methods thereof” (FOG PHARMACEUTICALS, INC., priority 2017, dated 2021).

The target in experiment [1] is T1, full-length beta-catenin (UniProt P35222 2-781, limits assumed).
T1 construct: mature; also called full-length ß-Catenin; β-catenin
T1 sequence (looked up): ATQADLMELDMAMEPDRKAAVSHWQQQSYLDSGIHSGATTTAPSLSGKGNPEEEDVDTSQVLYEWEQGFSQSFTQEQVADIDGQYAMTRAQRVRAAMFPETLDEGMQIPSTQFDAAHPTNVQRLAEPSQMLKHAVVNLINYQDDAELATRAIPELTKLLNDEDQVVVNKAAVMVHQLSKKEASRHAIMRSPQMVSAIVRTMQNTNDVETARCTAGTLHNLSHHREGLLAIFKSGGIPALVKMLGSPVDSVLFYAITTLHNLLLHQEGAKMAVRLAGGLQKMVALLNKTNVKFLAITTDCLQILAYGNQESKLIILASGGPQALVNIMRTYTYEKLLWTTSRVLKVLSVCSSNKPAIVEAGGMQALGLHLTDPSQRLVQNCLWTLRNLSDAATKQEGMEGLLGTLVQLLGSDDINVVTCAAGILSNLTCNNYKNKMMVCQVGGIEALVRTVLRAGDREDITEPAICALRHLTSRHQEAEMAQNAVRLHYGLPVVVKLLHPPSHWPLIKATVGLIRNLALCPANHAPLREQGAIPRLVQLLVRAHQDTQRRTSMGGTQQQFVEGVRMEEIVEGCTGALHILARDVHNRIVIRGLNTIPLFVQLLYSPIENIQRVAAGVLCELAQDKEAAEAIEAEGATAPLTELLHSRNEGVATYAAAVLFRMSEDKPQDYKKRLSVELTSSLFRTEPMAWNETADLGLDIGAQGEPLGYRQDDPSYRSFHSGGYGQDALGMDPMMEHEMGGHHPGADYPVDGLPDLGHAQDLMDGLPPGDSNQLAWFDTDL
In words: competition FP, grade of FP EC50 (++: 100-500 nM). The protocol: (§1) In some embodiments, a competition fluorescence polarization assay is used to assess binding of provided compounds to beta-catenin. In an exemplary procedure, solutions of provided compounds, e.g., provided stapled peptides, were prepared in a buffer (e.g., 50 mM Tris pH 8.0, 250 mM NaCl, 2% glycerol, 0.5 mM EDTA, 0.02% w/v sodium azide) using a 3-fold serial dilution from 5 µM. Probe solution (15 nM full-length ß-Catenin, 20 nM FITC labeled peptide in buffer) was prepared and incubated for a period of time, e.g., 5 minutes, and the a volume, e.g., 40 µL per well plated in suitable plate, e.g., a black polystyrene 384-well plate (Corning). Equal volume of the serial diluted peptide was added to the plate and incubated protected from light for 15 minutes prior to read. Reads were performed on a Spectramax M5 (Molecular Devices) in duplicate. Suitable probe was FITC-PEG1-PQ-S5-ILD-S5-HVRRVWR (SEQ ID NO: 1) (hydrocarbon staple formed by two S5 via olefin metathesis) and/or FITC-bA-PQ-S5-ILD-S5-HVRRVWR (SEQ ID NO: 3) (hydrocarbon staple formed by two S5 via olefin metathesis). […] Another peptide, FPO217c (Ac-AR_8ILDAHIM$B5$RVW (SEQ ID NO: 280), with N-terminal proline removed and valine replaced with isoleucine compared to FP0025c) was prepared.

The target in experiment [2] is T1, full-length beta-catenin. The experiment can be described thus: competition FP. The method, then:
as §1

Experiment [3] addresses T1, full-length beta-catenin. The experiment can be described thus: competition FP, grade of FP EC50 (+: 500-5000 nM). The method, then:
as §1

Numbered stars: 1 amine (or outer) side, 2 acyl side, 3 side chain; on linkers, the order of the positions; unused ones are H or OH. Bridge positions count the residues as written; N and C are the ends. Square brackets hold non-standard residues; d marks the D form. Primed or numbered codes have the meaning given here. MB(4) = Monomer B (PyrS), N-Alloc pyrrolidine stapling residue, (S)-3-amino-1-(allyloxycarbonyl)pyrrolidine-3-carboxylic acid, C=CCOC(=O)N1CC[C@@](N[*:1])(C(=O)[*:2])C1; R7″ = stapling residue, (R)-2-(6-heptenyl)alanine (drawn only), C=CCCCCC[C@@](C)(N[*:1])C(=O)[*:2]; R4″ = stapling residue, (R)-2-(3-butenyl)alanine (drawn only), C=CCC[C@@](C)(N[*:1])C(=O)[*:2]; MB(3) = Monomer B = PyrS, pyrrolidine stapling residue with allyl carbamate; ME = Monomer E = RgN, acyclic alkyl-N(Alloc) olefin stapling residue; R7 = (R)-2-(6-heptenyl)alanine, C=CCCCCC[C@@](C)(N[*:1])C(=O)[*:2]; R6 = (R)-2-(5-hexenyl)alanine, C=CCCCC[C@@](C)(N[*:1])C(=O)[*:2]; S6 = (S)-2-(5-hexenyl)alanine, C=CCCCC[C@](C)(N[*:1])C(=O)[*:2]; MB(5) = Monomer B (PyrS), N-Alloc pyrrolidine stapling residue; R4 = (R)-2-(3-butenyl)alanine, C=CCC[C@@](C)(N[*:1])C(=O)[*:2]; MF = Monomer F (SdN), acyclic alkyl-N(Alloc) stapling residue; MG = Monomer G = RdN, acyclic alkyl-N(Alloc) stapling residue; MC = Monomer C = PyrR, Alloc-pyrrolidine stapling residue; MA = Monomer A (Az), N-Alloc azetidine stapling residue; S7 = C[C@@](CCCCCC=[*:3])(N[*:1])C(=O)[*:2]; R8 = C=CCCCCCC[C@@](C)(N)C(=O)O; S8 = C=CCCCCCC[C@](C)(N)C(=O)O; αMeL = CC(C)C[C@](C)(N)C(=O)O; R5 = C=CCCC[C@@](C)(N)C(=O)O; αMeV = CC(C)[C@](C)(N)C(=O)O; S5 = C=CCCC[C@](C)(N)C(=O)O; Aib = CC(C)(N)C(=O)O

Take Ac-A[R8]ILDAHI[MB(4)]R[αMeV]W-NH2 (staple 2-9) [FP0632c]: the “FP EC50” value in experiment [1] was in the range of 100 to 500 nM.

Consider AXILDAHIXRVW (not fully specified; Ac-A-MG-I-L-D-A-H-I-MF-R-V-W-NH2; carbamate staple MG/MF) [FP0594c], for which the “FP EC50” value in experiment [1] fell in the range of 100 to 500 nM. The term EC50 denotes the concentration needed to bring the measured effect to its halfway point. Read a low EC50 as greater potency. As for Ac-PQ[MA]ILD[R7]HVRRVWR-NH2 (staple 3-7) [FP0727c], in experiment [2], the midpoint of the response, the EC50, lay at 520 nM. For the same molecule, the “FP EC50” value in experiment [3] was 500 to 5000 nM. Ac-A[R7″]ILDAHI[MA]RVW-NH2 (staple 2-9; not fully specified; printed as Ac-A-R7-I-L-D-A-H-I-MA-R-V-W-NH2) [FP0516a Isomer 1]: in experiment [1], the “FP EC50” value is 100 to 500 nM. As to Ac-A[R8]I[αMeL]DAHI[MB(4)]RVW-NH2 (staple 2-9) [FP0644c], the “FP EC50” value in experiment [1] lay within 100 to 500 nM. As for Ac-PQ[MC]ILD[R5]HVRRVWR-NH2 (staple 3-7) [FP0743c], a half-maximal response in experiment [2] (EC50) required 740 nM. The “FP EC50” value in experiment [3] fell in the range of 500 to 5000 nM.

As for Ac-A[R8]ILDAHI[MB(5)]RV[dW]-NH2 (staple 2-9) [FP0630c], the “FP EC50” value in experiment [1] lay in the range of 100 to 500 nM.

For Ac-A[MI]ILDAHI[S5]RVW-NH2 (staple 2-9; also: carbamate staple, isomer 1, olefin geometry not assigned) [FP0506c Isomer 1], the “FP EC50” value in experiment [1] was 100 to 500 nM. With AXILDAHIXRVW (not fully specified; Ac-A-ME-I-L-D-A-H-I-S8-R-V-W-NH2; carbamate staple ME/S8) [FP0335c Isomer 1], the “FP EC50” value in experiment [1] fell in the range of 100 to 500 nM. Still for that read-out and setting: as for Ac-A[R7″]ILDAHI[MA]RVW-NH2 (staple 2-9) [FP0516c], the figure is 100 to 500 nM.

B1: FP0495c (peptide)
peptide: Ac-A[R7]ILDAHI[MD]RVW-NH2
modifications: staple 2-9; not fully specified; printed as Ac-A-R7-I-L-D-A-H-I-MD-R-V-W-NH2; also: carbamate staple R7/MD (-N(R')-C(O)-O-)
On to B1, for which the “FP EC50” value in experiment [1] lay in the range of 100 to 500 nM.

B2: FP0776c (peptide)
peptide: Ac-PQ[R5]ILD[MG]HVRRVWR-NH2
modifications: staple 3-7; also: carbamate staple (-N(R')-C(O)-O-) by ring-closing olefin metathesis
B2 came in with an EC50 in experiment [2] of 570 nM. For the same molecule, the “FP EC50” value in experiment [3] fell in the range of 500 to 5000 nM.

B3: FP0212s Isomer 2 (peptide)
peptide: PAXILDAHVXRVW
modifications: not fully specified; Ac-P-A-R5-I-L-D-A-H-V-S8-R-V-W-NH2; hydrocarbon staple R5/S8
B3: the “FP EC50” value in experiment [1] fell in the range of 100 to 500 nM. In the case of Ac-PQ[R4″]ILD[MA]HVRRVWR-NH2 (staple 3-7) [FP0731c], the EC50 in experiment [2] is 4700 nM. Further, in experiment [3], the “FP EC50” value was in the range of 500 to 5000 nM. The molecule Ac-PQ[R5]ILD[MB(3)]HVRRVWR-NH2 (staple 3-7) [FP0758c] returned a half-maximal effective concentration (EC50) in experiment [2] of 2700 nM. The “FP EC50” value in experiment [3] lay within 500 to 5000 nM. As to Ac-PQ[R6]ILD[MA]HVRRVWR-NH2 (staple 3-7) [FP0735c], a half-maximal effect in experiment [2] (EC50) was put at 1600 nM. Also, in experiment [3], the “FP EC50” value is 500 to 5000 nM.

As to Ac-A[ME]ILDAHI[S8]RVW-NH2 (staple 2-9) [FP0335a], the “FP EC50” value in experiment [1] lay within 100 to 500 nM. Ac-PQ[MA]ILD[S5]HVRRVWR-NH2 (staple 3-7) [FP0724c]: a half-maximal effect in experiment [2] (EC50) was put at 540 nM. In addition, the “FP EC50” value in experiment [3] was 500 to 5000 nM. Regarding AXILDAHIXRVW (not fully specified; Ac-A-R5-I-L-D-A-H-I-MF-R-V-W-NH2; carbamate staple R5/MF) [FP0501c], in experiment [1], the “FP EC50” value was in the range of 100 to 500 nM. AXILDAHIXRVW (not fully specified; Ac-A-MA-I-L-D-A-H-I-MI-R-V-W-NH2; carbamate staple MA/MI) [FP0625c]: the “FP EC50” value in experiment [1] lay in the range of 100 to 500 nM.

B4: FP0628_aib (peptide)
peptide: Ac-A[Aib]ILDAHI[Aib]RVW-NH2
SMILES: CC[C@H](C)[C@H](NC(=O)[C@H](Cc1c[nH]cn1)NC(=O)[C@H](C)NC(=O)[C@H](CC(=O)O)NC(=O)[C@H](CC(C)C)NC(=O)[C@@H](NC(=O)C(C)(C)NC(=O)[C@H](C)NC(C)=O)[C@@H](C)CC)C(=O)NC(C)(C)C(=O)N[C@@H](CCCNC(=N)N)C(=O)N[C@H](C(=O)N[C@@H](Cc1c[nH]c2ccccc12)C(N)=O)C(C)C
As to B4, the “FP EC50” value in experiment [1] was in the range of 100 to 500 nM. For AXILDAHIXRVW (not fully specified; Ac-A-R7-I-L-D-A-H-I-MF-R-V-W-NH2; amino staple R7/MF) [FP0503a], in experiment [1], the “FP EC50” value fell in the range of 100 to 500 nM. In turn, Ac-PQ[MB(3)]ILD[S6]HVRRVWR-NH2 (staple 3-7) [FP0752c] registered an EC50 in experiment [2] of 2600 nM. Also, the “FP EC50” value in experiment [3] lay in the range of 500 to 5000 nM. Take Ac-PQ[S7]ILD[MA]HVRRVWR-NH2 (staple 3-7) [FP0738c]: it took 1800 nM to reach a half-maximal effect in experiment [2] (EC50). Also, the “FP EC50” value in experiment [3] was in the range of 500 to 5000 nM. Regarding Ac-PQ[MB(3)]ILD[S5]HVRRVWR-NH2 (staple 3-7) [FP0751c], the EC50 in experiment [2] was 2000 nM. Further, in experiment [3], the “FP EC50” value is 500 to 5000 nM. The molecule Ac-PQ[MA]ILD[R5]HVRRVWR-NH2 (staple 3-7) [FP0723c] gave an EC50 in experiment [2] of 1400 nM. Besides, the “FP EC50” value in experiment [3] fell in the range of 500 to 5000 nM. Ac-PQ[R5]ILD[MA]HVRRVWR-NH2 (staple 3-7) [FP0733c] displayed a half-maximal effective concentration (EC50) in experiment [2] of 920 nM. Besides, the “FP EC50” value in experiment [3] is 500 to 5000 nM. Ac-PQ[S6]ILD[MA]HVRRVWR-NH2 (staple 3-7) [FP0736c] returned an EC50 in experiment [2] of 890 nM. Moreover, in experiment [3], the “FP EC50” value fell in the range of 500 to 5000 nM. In turn, Ac-PQ[MA]ILD[S7]HVRRVWR-NH2 (staple 3-7) [FP0728c] yielded an EC50 in experiment [2] of 2100 nM. In addition, in experiment [3], the “FP EC50” value fell in the range of 500 to 5000 nM. In the case of Ac-A[R6]ILDAHI[MF]RVW-NH2 (staple 2-9; also: carbamate staple, isomer 2, olefin geometry not assigned, also called FP0502c (Peak 2)) [FP0502c Isomer 2], in experiment [1], the “FP EC50” value lay in the range of 100 to 500 nM.

Regarding Ac-PQ[MA]ILD[R4]HVRRVWR-NH2 (staple 3-7) [FP0721c], the half-maximal effective concentration (EC50) in experiment [2] came out at 1300 nM. The “FP EC50” value in experiment [3] was 500 to 5000 nM. Take Ac-A[R7]ILDAHI[MF]RVW-NH2 (staple 2-9; also: carbamate staple, olefin geometry not assigned) [FP0503c]: in experiment [1], the “FP EC50” value was in the range of 100 to 500 nM.
